Measured values taken from patent publication US20030232051A1 (GOVERNMENT OF THE UNITED STATES OF AMERICA AS REPRESENTED …, published 2003).

Biological target: T1, KIR2DL4 receptor (on NK cells or on cells transfected with 2DL4) (human, UniProt Q99706 22-377)
T1 construct: whole, on cells; Endogenous on human NK cells and NK cell lines (NK3.3, NKL, NK92) or on transfected cells; also called CD158d
Experiment: transfection experiments in Ba/F3 and 293T cells

T1 sequence (Q99706 22-377): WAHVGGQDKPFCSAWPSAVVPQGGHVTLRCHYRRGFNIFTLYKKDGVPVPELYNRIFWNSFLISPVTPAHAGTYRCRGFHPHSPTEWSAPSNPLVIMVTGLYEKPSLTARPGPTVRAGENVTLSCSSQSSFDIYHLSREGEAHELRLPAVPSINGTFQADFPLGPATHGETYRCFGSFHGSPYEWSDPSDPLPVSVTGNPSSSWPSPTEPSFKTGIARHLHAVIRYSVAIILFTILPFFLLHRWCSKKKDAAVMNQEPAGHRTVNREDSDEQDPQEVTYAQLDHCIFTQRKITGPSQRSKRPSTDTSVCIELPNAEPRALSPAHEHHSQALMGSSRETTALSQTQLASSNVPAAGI

Binder | binding result
DAP10 (other, UniProt Q9UBK5 19-93, looked up, whole, on cells) QTTPGERSSLPAFYPGTSGSCSGCGSLSLPLLAGLVAADAVASLLIVGAVFLCARPRRSPAQEDGKVYINMPGRG | no binding
DAP12 (other, UniProt O43914 22-113, looked up, whole, on cells; also called DAP12 adaptor protein) LRPVQAQAQSDCSCSTVSPGVLAGIVMGDLVLTVLIALAVYFLGRLVPRGRGAAEAATRKQRITETESPYQELQGQRSDVYSDLNTQRPYYK | no binding
FcRγ chain (other, UniProt P30273 19-86, looked up, whole, on cells) LGEPQLCYILDAILFLYGIVLTLLYCRLKIQVRKAAITSYEKSDGVYTGLSTRNQETYETLKHEKPPQ | no binding
